Source: patent US20240034815A1 (Xencor, published 2024)
Substitutions are numbered along the chain they refer to. Names may count otherwise.

Experiments:
His-tagged human GPC3 [1] = target: T1, His-tagged human GPC3 (human, UniProt P51654 25-559, limits assumed); assay: Octet (BLI); His-tagged GPC3 captured on HIS1K sensors, bsAb in solution
T1 construct: Captured on HIS1K sensors in the Octet assay; also called human GPC3 antigen; Glypican 3; not shown: His tag
Description: (§1) After humanization, GPC3 binding arms were engineered with single point mutations in the variable light domain with the aim to create a ladder of GPC3 binding affinity, illustrative sequences for which are depicted in FIG. 13. 73 variable light domain variants were engineered and paired with GPC3-A H1.1 (see Example 3C for description of GPC3-A H1.1 variant). The GPC3-A variants were engineered in the 1+1 Fab-scFv-Fc bsAb format and binding for GPC3 antigen was measured using Octet, a BioLayer Interferometry (BLI)-based method. Experimental steps for Octet generally include the following: Immobilization (capture of ligand to a biosensor); Association (dipping of ligand-coated biosensors into wells containing the analyte); and Dissociation (returning of biosensors to well containing buffer). For ease of clinical development (e.g. by investigating the therapeutics in model animals), it is useful for the binding domains to be cross-reactive for cynomolgus antigen; therefore, binding to both human and cynomolgus GPC3 antigen were investigated. His-tagged human and cynomolgus GPC3 were captured on HIS1K sensors then dipped into multiple concentrations of the bispecific antibodies. The resulting dissociation constant (KD) are depicted in FIG. 23.

[2] = target: T2, His-tagged cynomolgus GPC3 (cynomolgus, UniProt A0A2K5VK50 24-558); assay: binding assay not named for this figure; Octet (BLI) is the method of Example 2B
T2 construct: Captured on HIS1K sensors in the Octet assay; also called cynomolgus GPC3 antigen; cyno GPC3; not shown: His tag
Description: as §1

His-tagged human GPC3 [3] = target: T1, His-tagged human GPC3; assay: as above
Description: as §1

His-tagged human GPC3 [4] = target: T1, His-tagged human GPC3; assay: affinity label of the GPC3 binding domain; Octet (BLI) of Example 2
Description: as §1

[5] = target: T2, His-tagged cynomolgus GPC3; assay: Octet (BLI), His-tagged GPC3 captured on HIS1K sensors, bsAb as analyte
Description: as §1

His-tagged human GPC3 [6] = target: T1, His-tagged human GPC3; assay: as above
Description: as §1

His-tagged human GPC3 [7] = target: T1, His-tagged human GPC3; assay: binding assay not named for this figure; human GPC3 per legend paragraph 61

T1 sequence (P51654 25-559 limits assumed): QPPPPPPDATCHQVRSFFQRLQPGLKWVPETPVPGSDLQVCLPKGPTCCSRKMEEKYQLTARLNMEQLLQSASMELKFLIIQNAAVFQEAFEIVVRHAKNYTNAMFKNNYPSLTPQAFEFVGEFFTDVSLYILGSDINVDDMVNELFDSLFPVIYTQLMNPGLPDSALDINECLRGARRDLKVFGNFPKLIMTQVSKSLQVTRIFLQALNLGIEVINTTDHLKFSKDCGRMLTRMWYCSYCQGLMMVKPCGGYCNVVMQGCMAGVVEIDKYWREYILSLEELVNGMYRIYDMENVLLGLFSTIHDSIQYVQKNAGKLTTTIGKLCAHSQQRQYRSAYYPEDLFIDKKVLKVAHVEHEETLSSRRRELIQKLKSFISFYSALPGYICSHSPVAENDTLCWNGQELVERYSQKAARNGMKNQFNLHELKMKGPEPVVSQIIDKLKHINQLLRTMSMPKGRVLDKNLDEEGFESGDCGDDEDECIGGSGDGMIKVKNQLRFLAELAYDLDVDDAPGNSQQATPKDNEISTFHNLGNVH

B1: XENP36941 (GPC3-A H1.1_L1.29 formatted as 1+1 Fab-scFv-Fc with CD3 High-Int #1 scFv) (bispecific antibody)
heavy: QVQLVQSGAEVKKPGASVKVSCKASGYTFTDYEMHWVRQAPGQGLEWMGALEPKTGDTAYSQKFQGRVTMTADKSISTAYMELSRLRSDDTAVYYCTRFYSYTYWGQGTLVTVSSASTKGPSVFPLAPSSKSTSGGTAALGCLVKDYFPEPVTVSWNSGALTSGVHTFPAVLQSSGLYSLSSVVTVPSSSLGTQTYICNVNHKPSDTKVDKKVEPKSCDKTHTCPPCPAPPVAGPSVFLFPPKPKDTLMISRTPEVTCVVVDVKHEDPEVKFNWYVDGVEVHNAKTKPREEEYNSTYRVVSVLTVLHQDWLNGKEYKCKVSNKALPAPIEKTISKAKGQPREPQVYTLPPSREEMTKNQVSLTCDVSGFYPSDIAVEWESDGQPENNYKTTPPVLDSDGSFFLYSKLTVDKSRWEQGDVFSCSVMHEALHNHYTQKSLSLSPGK
scFv-Fc: not shown
light: DVVMTQSPLSLPVTLGQPASISCRSSQSLVHSNGNTYLHWYQQRPGQSPRLLIYQVSNRFSGVPDRFSGSGSGTDFTLKISRVEAEDVGVYFCSQNTHVPPTFGSGTKLEIKRTVAAPSVFIFPPSDEQLKSGTASVVCLLNNFYPREAKVQWKVDNALQSGNSQESVTEQDSKDSTYSLSSTLTLSKADYEKHKVYACEVTHQGLSSPVTKSFNRGEC
notes: 1+1 Fab-scFv-Fc, human IgG1 heterodimeric backbone; treated as one molecule; also called [GPC3]H1.1_L1.29
Kd (His-tagged human GPC3 [1]): 70 nM

B2: XENP36933 H1.1_L1.67 (bispecific antibody)
heavy: B1 heavy
scFv-Fc: not shown
light: B1 light with G34K, Y37W, Q55K
notes: also called [GPC3]H1.1_L1.67; VL G29K Y32W; copies: 1 + 1 + 1
Kd [2]: 600 nM
Kd (His-tagged human GPC3 [3]): 550 nM

B3: GPC3-A H1.1_L1.73 in the 1+1 Fab-scFv-Fc bsAb format (bispecific antibody)
heavy: B1 heavy
scFv-Fc: not shown
light: B1 light with G34K, Q55Y
notes: also called [GPC3]H1.1_L1.73
Kd [2]: 550 nM
Kd (His-tagged human GPC3 [3]): 477 nM
Kd (His-tagged human GPC3 [4]): 400 nM

B4: XENP34365_GPC3-A_H1.1__L1.16 (bispecific antibody)
heavy: B1 heavy
scFv-Fc: not shown
light: B1 light with N33S, Q55K, N96S
notes: Another XENP number than XENP35843, which has the same GPC3 Fv
Kd [5]: 100 nM
Kd (His-tagged human GPC3 [6]): 93 nM

B5: XENP21971_GPC3-A_H1_L1 (bispecific antibody)
heavy: B1 heavy with E52D
scFv-Fc: not shown
light: B1 light with Q55K
notes: the sheet prints H1_L1; copies: 1 + 1 + 1
Kd [5]: 4 nM
Kd (His-tagged human GPC3 [6]): 4 nM

B6: XENP36936 H1.1_L1.70 (bispecific antibody)
heavy: B1 heavy
scFv-Fc: not shown
light: B1 light with G34K
notes: also called [GPC3]H1.1_L1.70; VL G29K K50Q; copies: 1 + 1 + 1
Kd [2]: 130 nM
Kd (His-tagged human GPC3 [3]): 130 nM

B7: GPC3-A H1.1_L1.6 formatted as 1+1 Fab-scFv-Fc with CD3 High-Int #1 scFv (bispecific antibody)
heavy: B1 heavy
scFv-Fc: not shown
light: B1 light with G34T, Q55K
notes: 1+1 Fab-scFv-Fc: VH-CH1-hinge-CH2-CH3 chain and VL-CL light chain form the GPC3 Fab, plus an scFv-Fc chain; also called [GPC3]H1.1_L1.6
Kd (His-tagged human GPC3 [1]): 4 nM

B8: XENP34368_GPC3-A_H1.1__L1.31 (bispecific antibody)
heavy: B1 heavy
scFv-Fc: not shown
light: B1 light with Q55Y
notes: Another XENP number than XENP36140, which has the same GPC3 Fv; copies: 1 + 1 + 1
Kd [5]: 485 nM
Kd (His-tagged human GPC3 [6]): 464 nM

B9: XENP36934 H1.1_L1.68 (bispecific antibody)
heavy: B1 heavy
scFv-Fc: not shown
light: B1 light with N33Y
notes: also called [GPC3]H1.1_L1.68; VL N28Y K50Q; copies: 1 + 1 + 1
Kd [2]: 370 nM
Kd (His-tagged human GPC3 [3]): 370 nM

B10: GPC3-A H1.1_L1.69 in the 1+1 Fab-scFv-Fc bsAb format (bispecific antibody)
heavy: B1 heavy
scFv-Fc: not shown
light: B1 light with G34A
notes: also called [GPC3]H1.1_L1.69
Kd [2]: 150 nM
Kd (His-tagged human GPC3 [3]): 150 nM
Kd (His-tagged human GPC3 [4]): 70 nM

B11: XENP34364_GPC3-A_H1.1__L1.29 (bispecific antibody)
heavy: B1 heavy
scFv-Fc: not shown
light: B1 light
notes: Another XENP number than XENP36941, which has the same GPC3 Fv
Kd [5]: 73 nM
Kd (His-tagged human GPC3 [6]): 70 nM

B12: XENP35843 (GPC3-A H1.1_L1.16 formatted as 1+1 Fab-scFv-Fc with CD3 High-Int #1 scFv) (bispecific antibody)
heavy: B1 heavy
scFv-Fc: not shown
light: B1 light with N33S, Q55K, N96S
notes: 1+1 Fab-scFv-Fc, human IgG1 heterodimeric backbone; treated as one molecule; also called [GPC3]H1.1_L1.16
Kd (His-tagged human GPC3 [1]): 100 nM

B13: GPC3-A variable heavy variant H1.1 (D52E) with L1 (antibody, V domains shown)
VH: QVQLVQSGAEVKKPGASVKVSCKASGYTFTDYEMHWVRQAPGQGLEWMGALEPKTGDTAYSQKFQGRVTMTADKSISTAYMELSRLRSDDTAVYYCTRFYSYTYWGQGTLVTVSS
VL: DVVMTQSPLSLPVTLGQPASISCRSSQSLVHSNGNTYLHWYQQRPGQSPRLLIYKVSNRFSGVPDRFSGSGSGTDFTLKISRVEAEDVGVYFCSQNTHVPPTFGSGTKLEIK
notes: pairing with L1 follows from the library being made on humanized GPC3-A and from pair c) of claim 53; also called [GPC3]H1.1_L1
Kd (His-tagged human GPC3 [7]): 3.92 nM

B14: XENP 23064 H1_L1.1 (antibody, human IgG1, kappa, V domains shown)
VH: B13 VH with E52D
VL: DVVMTQSPLSLPVTLGQPASISCRSSQSLVHSQGNTYLHWYQQRPGQSPRLLIYKVSNRFSGVPDRFSGSGSGTDFTLKISRVEAEDVGVYFCSQNTHVPPTFGSGTKLEIKR
notes: VH WT, VL mutation (Kabat) N28Q; also called [GPC3]H1_L1.1; VL N28Q; copies: 2 + 2
Kd (His-tagged human GPC3 [7]): 28.2 nM

B15: GPC3-A variable light variant L1.6 (G29T) with H1 (antibody, V domains shown)
VH: B13 VH with E52D
VL: B14 VL with Q33N, G34T
notes: pairing with H1 follows from the library being made on humanized GPC3-A and from pair l) of claim 53; also called [GPC3]H1_L1.6
Kd (His-tagged human GPC3 [7]): 2.85 nM

B16: XENP 23066 H1_L1.3 (antibody, human IgG1, kappa, V domains shown)
VH: B13 VH with E52D
VL: B14 VL with Q33S
notes: VH WT, VL mutation (Kabat) N28S; also called [GPC3]H1_L1.3; VL N28S; copies: 2 + 2
Kd (His-tagged human GPC3 [7]): 12.7 nM

B17: XENP 23067 H1_L1.4 (antibody, human IgG1, kappa, V domains shown)
VH: B13 VH with E52D
VL: B14 VL with Q33H
notes: VH WT, VL mutation (Kabat) N28H; also called [GPC3]H1_L1.4; VL N28H
Kd (His-tagged human GPC3 [7]): 11.7 nM

B18: XENP 23070 H1_L1.7 (antibody, human IgG1, kappa, V domains shown)
VH: B13 VH with E52D
VL: B14 VL with Q33N, G34K
notes: VH WT, VL mutation (Kabat) G29K; also called [GPC3]H1_L1.7; VL G29K; copies: 2 + 2
Kd (His-tagged human GPC3 [7]): 2.22 nM

B19: XENP 23063 H1.4_L1 (antibody, human IgG1, kappa, V domains shown)
VH: B13 VH with E52S
VL: B14 VL with Q33N
notes: VH mutation (Kabat) D52S, VL WT; also called [GPC3]H1.4_L1; VH D52S; copies: 2 + 2
Kd (His-tagged human GPC3 [7]): 3.62 nM

B20: humanized GPC3-A H1_L1 (antibody, V domains shown)
VH: B13 VH with E52D
VL: B13 VL
notes: also called [GPC3]H1_L1
Kd (His-tagged human GPC3 [7]): 3.17 nM

B21: XENP 23068 H1_L1.5 (antibody, human IgG1, kappa, V domains shown)
VH: B13 VH with E52D
VL: B14 VL with Q33N, G34A
notes: VH WT, VL mutation (Kabat) G29A; also called [GPC3]H1_L1.5; VL G29A; copies: 2 + 2
Kd (His-tagged human GPC3 [7]): 2.09 nM

B22: XENP 23062 H1.3_L1 (antibody, human IgG1, kappa, V domains shown)
VH: B13 VH with E52Q
VL: B14 VL with Q33N
notes: VH mutation (Kabat) D52Q, VL WT; also called [GPC3]H1.3_L1; VH D52Q; copies: 2 + 2
Kd (His-tagged human GPC3 [7]): 3.13 nM

B23: XENP 23065 H1_L1.2 (antibody, human IgG1, kappa, V domains shown)
VH: B13 VH with E52D
VL: B14 VL with Q33Y
notes: VH WT, VL mutation (Kabat) N28Y; also called [GPC3]H1_L1.2; VL N28Y; copies: 2 + 2
Kd (His-tagged human GPC3 [7]): 7.43 nM

B24: XENP 23073 H1_L1.10 (antibody, human IgG1, kappa, V domains shown)
VH: B13 VH with E52D
VL: B14 VL with Q33N, N35H
notes: VH WT, VL mutation (Kabat) N30H; also called [GPC3]H1_L1.10; VL N30H; copies: 2 + 2
Kd (His-tagged human GPC3 [7]): 3.38 nM

B25: XENP 23061 H1.2_L1 (antibody, human IgG1, kappa, V domains shown)
VH: B13 VH with E52N
VL: B14 VL with Q33N
notes: VH mutation (Kabat) D52N, VL WT; also called [GPC3]H1.2_L1; VH D52N; copies: 2 + 2
Kd (His-tagged human GPC3 [7]): 5.81 nM

B26: XENP 23072 H1_L1.9 (antibody, human IgG1, kappa, V domains shown)
VH: B13 VH with E52D
VL: B14 VL with Q33N, N35Y
notes: VH WT, VL mutation (Kabat) N30Y; also called [GPC3]H1_L1.9; VL N30Y; copies: 2 + 2
Kd (His-tagged human GPC3 [7]): 1.37 nM

B27: XENP 23071 H1_L1.8 (antibody, human IgG1, kappa, V domains shown)
VH: B13 VH with E52D
VL: B14 VL with Q33N, N35Q
notes: VH WT, VL mutation (Kabat) N30Q; also called [GPC3]H1_L1.8; VL N30Q; copies: 2 + 2
Kd (His-tagged human GPC3 [7]): 2.35 nM
